Data as given in article PMC12217166, “Conformational dynamics and membrane insertion mechanism of B4GALNT1 in ganglioside synthesis” (Nature Communications, 2025).

B1: B4GALNT1 lumenal domain construct ΔN27 (entire lumenal domain, human) (domain or fragment)
chain: HHHHHHHHHHGTRDAPGLRLPLAPWAPPQSPRRPELPDLAPEPRYAHIPVRIKEQVVGLLAWNNCSCESSGGGLPLPFQKQVRAIDLTKAFDPAELRAASATREQEFQAFLSRSQSPADQLLIAPANSPLQYPLQGVEVQPLRSILVPGLSLQAASGQEVYQVNLTASLGTWDVAGEVTGVTLTGEGQADLTLVSPGLDQLNRQLQLVTYSSRSYQTNTADTVRFSTEGHEAAFTIRIRHPPNPRLYPPGSLPQGAQYNISALVTIATKTFLRYDRLRALITSIRRFYPTVTVVIADDSDKPERVSGPYVEHYLMPFGKGWFAGRNLAVSQVTTKYVLWVDDDFVFTARTRLERLVDVLERTPLDLVGGAVREISGFATTYRQLLSVEPGAPGLGNCLRQRRGFHHELVGFPGCVVTDGVVNFFLARTDKVREVGFDPRLSRVAHLEFFLDGLGSLRVGSCSDVVVDHASKLKLPWTSRDAGAETYARYRYPGSLDESQMAKHRLLFFKHRLQCMTSQ
modifications: N-linked glycosylation (3 predicted sites, positions not given)

How the values were obtained:
[1] = biological target: His10-ΔN46-B4GALNT1 (human B4GALNT1 lumenal domain construct ΔN46) (human) (UniProt Q00973); experiment: non-reducing SDS-PAGE; purified protein in SDS loading dye without or with 50 mM DTT, heated 5 min at 95 °C, NuPAGE 4-12% Bis-Tris gel, Coomassie stain; dimer seen without reducing agent
[2] = biological target: the molecule itself; experiment: as above

Molecule	stoichiometry N [1]	stoichiometry N [2]
His10-ΔN46-B4GALNT1 (human B4GALNT1 lumenal domain construct ΔN46) (from UniProt Q00973 47-533) (domain or fragment)	2	
B1		2
